Measurements as given in publication PMC7423924, “A fluorogenic cyclic peptide for imaging and quantification of drug-induced apoptosis” (Nature Communications, 2020).
“And” between values parts separate entries of the source, which are not always exact repeats. Equal values may be shown once.

System: BL-2 cells (lymphoid)
Assay: Flow cytometry staining before and after induction of apoptosis, BL-2
Format: cell-based, human
Conditions: single replicates, listed as Ann V
Experimental: Fig. 2 Apo-15 binds to apoptotic cells of different origin in multiple environments. a Representative fluorescence confocal microscopy images (from three independent experiments) human apoptotic (yellow arrows) and viable (white arrows) cells from different lineages: BL-2 (lymphoid), neutrophils (myeloid), and primary airway epithelial cells (epithelial). Cells were incubated with Apo-15 (100 nM, green), AF647-Annexin V (5 nM, red), and Hoechst 33342 (7 μM, blue) for 10 min and imaged under a fluorescence confocal microscope (λexc.: 405, 488, 633 nm: λem.: 450, 525, 670 nm). Scale bars: 10 µm. b Divalent cation-independent binding of Apo-15 to apoptotic cells of different origin (top plots: lymphoid cells, bottom plots: myeloid cells). Mixtures of apoptotic (highlighted in green dots) and viable cells (highlighted in black dots) were stained with AF647-Annexin V (25 nM) and Apo-15 (100 nM) in the presence of 2 mM CaCl2 (left) or 2.5 mM EDTA (right). Representative histograms showing Apo-15 binding (x-axis) vs AF647-Annexin V binding (y-axis) acquired on 5L LSR flow cytometer (n = 5). c Cells were sorted on their Apo-15 positivity (green populations in panel b) or negativity (black populations in panel b). Gating strategy in Supplementary Fig. 7. Morphological analysis (four independent images from two independent experiments) of cytocentrifuge preparations of Apo-15-positive and Apo-15-negative cells under brightfield microscopy (scale bar: 10 µm). d Quantification of fluorescence staining of neutrophils (myeloid, n ≥ 5), BL-2 cells (lymphoid, n ≥ 3) and primary airway epithelial cells (epithelial, n = 5) before and after induction of apoptosis and upon treatment with Apo-15 and AF647-Annexin V. Data acquired on 5 L LSR flow cytometer and presented as mean values ± SEM. P values obtained from two-tailed t tests. Source data (in d) are provided as a Source data file. […]
All apopeptides were reconstituted at 5 mM in DMSO. […] Fluorescence emission was measured on a 5 L LSR flow cytometer (BD). […]

B1: Annexin V: fluorescently-labeled (AF647) annexin V, PS-binding protein (protein, UniProt P08758 2-320, looked up)
Annexin A5: AQVLRGTVTDFPGFDERADAETLRKAMKGLGTDEESILTLLTSRSNAQRQEISAAFKTLFGRDLLDDLKSELTGKFEKLIVALMKPSRLYDAYELKHALKGAGTNEKVLTEIIASRTPEELRAIKQVYEEEYGSSLEDDVVGDTSGYYQRMLVVLLQANRDPDAGIDEAQVEQDAQALFQAGELKWGTDEEKFITIFGTRSVSHLRKVFDKYMTISGFQIEETIDRETSGNLEQLLLAVVKSIRSIPAYLAETLYYAMKGAGTDDHTLIRVMVSRSEIDLFNIRKEFRKNFATSLYSMIKGDTSGDYKKALLLLCGEDD
modifications: AF647 label
For B1, the “Stained cells (flow cytometry)” value (BL-2 0h UV) was 25.4% and 28.9% and 10.3%, the “Stained cells (flow cytometry)” value (BL-2 3h UV, EDTA) was 1.4% and 1.1% and 2.6% and the “Stained cells (flow cytometry)” value (BL-2 3h UV) was 86.9% and 45.3% and 46.5% and 34.9%.
